From the nanobody polyreactivity screen of Harvey et al. (2022)

Experiment: yeast display, Sf9 membrane polyspecificity reagent, FACS + sequencing; frameworks hold sequencing errors
In short: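 Sorting gates, low and high (top ~1%), were placed on anti-HA fluorescence to track expression and on streptavidin fluorescence to track reagent binding. A clone's polyreactivity label is taken from the gate it came out of. The reagent was 10% biotinylated, detergent-solubilized Sf9 membrane, applied for 1 hour at 4 °C to galactose-induced yeast display cells.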

Row | Sequence | polyreactivity (PSR sort gate)
1 | QVQLVESGGGLVQAGGSHRLSCAASRRIFGYNAMGWYRKAPGKERELVAAIRYSGGRTYYADSVKGRFTISRDNAKNTVYLQMNSLKPEDTAVYYCAATAFDKLKVWYYYWGQGTQVTVSS | high polyreactivity
2 | QVQHVESVGGLVQAGGSLRLICADSGFTFWPYAMGWYRPAPGTERELVAAITSSGSTNYADSVKGRFTISRDNAKNTVYLQMNSMKQEDTAVYYCAADHRPWRFQSSVQLYYYWGQGTQVTVSS | low polyreactivity
3 | QVQLVESGGGLDQAGGSLRLSCAASGRTFVYYALGWYRQAPRQERELVAAITWSGGRTYYADSVKGRFTISRDNAKNTVYLQMNSLKPEDTAVYYCNRDQWAWESGYAYNYCGQGTQVTVSS | low polyreactivity
4 | QVQLVESGGGLVQAGGSLRLSCAASGSTFLNYALGWYRQAPGKERELVASISYSAGSTYYADSVKGRFTISRDNAKNTVYLQMNSLKPEDTAVYYCAARLARAGYWRRNYYYWGQGTQVTVSS | high polyreactivity
5 | QVQHVESGGGLVQAGGSLRLSCAASGLIFARNAMVWYRQAPGKERELVAAISSSGNTYADSVKGRFTISRDNAKNTVYLQMNSLKPEDTAVFYCAADYVRWGQRKRSRYYYWGHGTQVTVSS | high polyreactivity
6 | QVQLVESGGGLVQAGGSLRLSCAASGFIQPYNTMGWYRQAPGKEREFVAAINYSGGRTYYADSVKGRFTISRDNAKNTVYLQMNRLKPEDTAVYYCAAARYPYRYKYNYWGQGTQVTVSS | high polyreactivity
7 | QVQLVESGGGLVQAGGSLRLSSAASGSTFRWYAMGWSRQEPGKEREFVAAITWSGGRTYYADSVKGRFTISRDNAKNTVFLQLNSLKPEDTAVYYCNAYDYGYSFNYWGQGTQVTLSS | high polyreactivity
8 | QVQLVESGGCLVQAGGSLRLSCDASGSTFLTNTMGWYRQPPGKERELVAAISSGDSTYYADSVKGRFTISRDNAKNTVYLQMNSLKPEVTAVYYCARDVGWRNVPRDYWGQGTQVTVSS | low polyreactivity
9 | QVQHVESGGGLVQAGGSLRLSCAASGSTITANAMGWYRQAPGKERELVPAISDTTGNTYYADSVMGRFTISRDNANNTVYLQMNSLKPEDTAVYYCAADLTSYYGGDYWGQGTQVTVSS | low polyreactivity
10 | QVQLVESGGGLVQAGGSLRLSCAASGSIFKYYTMGWYRQAPGKDRELVAAISSGGSTTYADSVKGRFTISRDNAKNSVYLQMNSLKPEDTAVYCCAAGYGYPTFVERDYWGHGTQVTVSS | high polyreactivity
11 | QVQLVESGGGLVQAGGSLRLSCAASGRTFLVYAMGWYRQAPGKERDLVAAITGSGTSTYYADSVKRRFTISRDNGKNTVYLQMNSLKAEDTAVYYCAAEVRLGTYGYDYDYWGQGTQVTVSS | high polyreactivity
12 | QVQLVESGGGLVQAGGSLRLSCAASGRTFGYNAMGWYRQAPGKERELVAAISYSGGRTYYADSVKGRFTISRDNAKNTVYLQMNSLKPEDTAVYYCAAKNPYKYDYWGQGTQVTVSS | high polyreactivity
13 | QVQLVESGGGLVQAGGSLRLSCAASGIIFKIYAMGWYRQAPGKARELVAAISWRGGSTYYADSVKGRFTISRDNAKNTVYLQMNSLKPEDTAVYYCAAARGYRTGYGYWGQGTQVTVSS | high polyreactivity
14 | QVQLVESGGGLVQAGGSLRISCAASGGTFHRYAMGWYRQAPGKERELVAAISGSGASTYYADSVKGRFTISRDNAKNTVYLQMNSLKPEDTAVYYCNAYYYPYWYRYYYWGQGTQVTVSS | high polyreactivity
15 | QVHLVESGGGLVQAGGSLRLSCAASGSTFYYNAMGWYRLAPGKERELVASISYSGDSTYYADSVKGRFTISRVNAKNTVYLQMNSLKPEDTAVYYCNASTSFRSHLGFLYDYWGQGTQVTVSS | high polyreactivity
16 | QVQLVESGGGLVQAGGSLRLSCAATARIFVRYAMGWYRQAPGKERELVAAISTSGGRTYYADSVKGRFTISRDNAKNTVYLQMNSLKPEDTAVYYCNARIKRPRGVYGGDYWGQGTQVTVSS | high polyreactivity
17 | QVQLVESAGGLVQAGGSLRLSCAASGSTFTYYAMGWSRQAPGKESELVAAISSGASTYYADSVKGRFTFSRDNAKNTVYLQMNSLKPEDTAVYYCNAKKSIRPYRTGMDYWGQGTQVTVSS | high polyreactivity
18 | QVQLVESGGGFVQAGGSLRLSCAASGRIFTRYAMGWYRQAPGKERELVASISWSGDGTYYADSVKGRFTISRDNAKNTVYLQMNSLKPDDTAVYYCAARYGTVVPGQVRWYGYGYWGQGTQVTVSS | high polyreactivity
19 | QVQLVDSGGGLVQAGGILRLSCAASGSTFRRYSMGWYRHAPGKQRELVAAISGRGGSTSYADSVKGRFTISRDNAKNTVYLQINSLKPEDTAVYYCAADDKYFYPGNGYWGQGTQVTVSS | high polyreactivity
20 | QVQLVESWGGLVQAGGSLRLSCAASGRTFYSYVMGWYRKAPGKEREMVAAITSGGSTYYADSVKGRFTISRDNAKNTVYLQMNSLKPEDTAVYYCAADGDYASYDTFWYWAPEYDYWGQGTQVTVSS | low polyreactivity
21 | QVQLVESGGGLVQAGGSLRLSCAASGSILSYYAMGWYRQAPGKERELVAAISKTGGRTYYADSVKGRFTISRDNAKNTVYLQMNSLKPEDTAVYYCAAVDTIGRYDYWGQGTQVTVSS | high polyreactivity
22 | QVQHEESGGGLVQAGGSLRLSCAASGRIFFGKVMGGYRQAPGTERELVAVITSGGNTNYADSVKGRFTISRDNAKNTVYLQMHSLKPEDTAVYYCATAVVAGVWGYDYWGQGTQVTVSS | low polyreactivity

Row | Sequence | polyreactivity (PSR sort gate)
23 | QVQLVESGGGLVQEGGSLRLSCAASGSIFDTYAMGWYRQAPGKERELVAAISSGGRTYYADSVKGRFTISRDNAKNTDYFQMNSLKPEYTAVYYCAKERYQQGNYYRYGYWGQGTQVTVSS | high polyreactivity
24 | QVQLVESGGGLVQAGGSLRLSCAASGSIMVRYAMGWYRQAPGKERELVAAITSGGSTYADSVKGRFTISRDNAKNTVYLQMNSLKPEDTAVYYCARDYFNREAFDYWGQGTQVTVSS | low polyreactivity
25 | QVQLVESGGGLVQAGGSLRLTGAASGRIFRSYAMGWYRQAPGKERELVASISGSTTYYADSVKGRFTISRDNAKNTVYLQMNSLKPEDTAVYYCAVKYDAWGYGYRHFDYWGQGTQVTVSS | low polyreactivity
26 | QVQLVESGGGLVQAGASLRLSCAASGRIFARYAMGWYRQAPGKERELVASITRSGGSTYYADSVKGRYTISRDNAKNTVYLQMNSLKPEDTAVYYCAARYGRVRDVIPYDYWGQGTQVTVSS | high polyreactivity
27 | QVQLVDSGGGLVQAGGSLRLSCPASGSTFSRYAMGWYRQAPGKERELVAAISRSGGTTYYADSVKGRFTISRDNAKNTVYLQMNSLKPEDTAVYYCNDRGRYEYGYWGQGTQVTVSS | high polyreactivity
28 | QVQLVESGGGLVQAGGSLRLSCAASGFTFTGYAMGWYRQAPGKERELVAAINRSGGTTYYADSVKGRFTISRDNAKNTVYLQMNSLKPEDTAVFYCAAFPSGRHRGDYWGQGTQVTVSS | high polyreactivity
29 | QVQLVESGGGLVQAGGSLRLSCAASGRTFYYYAMGWYRQAPGKERELVAGISWSAGSTYYADSVKGRFTISRDNAKNTVYLQMNSLKPEDTAVYYCAARYWQSYRSQVTHSSTLDYWGQGTQVTVSS | low polyreactivity
30 | QVQLVESGGGLVQAGGSLRLSSAASTYLRLLMLWDGIDRRLGQIGSWLPLLTLVVNSTYYADSVKGRFTISRDNAKNTVYFQMNSLKPEDTAVYYCNVDPYGTYARTHLEYWGQGTQVTVSS | low polyreactivity
31 | QVKLVESGGGLVQAGGSLRLSCAASGRTFIYYAMGWYRQAPGKERELVAGITYSVGSTYYADSVKGRFTISRDNAKNTVYLQMNSLKPEVTAVYYCAAKPVGTYSRPHDYWGQGTQVTVSS | low polyreactivity
32 | QVQLVESGGGLVQAGGSLRLSCAAYGRTIRVYAMVWYRQAPGKERELVAAITSGDSTYYADSVKGRFTISRDNAKNTVYLQMNSLKPEDTAVYYCAVNTRRYWYGYWGQGTQVTVSS | high polyreactivity
33 | HVQLVESGGGLVQAGGSLRLSCAASGSIFYYNVMGWYRQAPGKERELVAAIDIDGSTYYADSVKGRFTISRDNAKNTVYLQMNSMKPEDTAVYYCNAQAPYWFSFYYDHKYDYWGQGTQVTVSS | low polyreactivity
34 | QVQLVESGGGLVQAGGSLRLSCAASGFIFRYYAMGWYRQAPGKERELVAAISNNAGRTYYADSVKGRFTISRDNAKNTVYLQMNSLKPEDTAVYYCAARVWTGRKYDYWGQGTQVTVSS | high polyreactivity
35 | QVQLVESGGGLVQAGGSLRLSCAASGSILSKNAMGWYRQAPGKERELVAAITWSGGSTYYADSVKGRFTISRDNAKNTVYLQMNSLKPEDTAVYYCAADLDWSPHFGLPYDYWGQGTQVTVSS | low polyreactivity
36 | QVQLVESGGGLVQAGGSIRLSCAASGSTLQGNAMGWYRQAPGKERELDAAISRSGGSTYADSVKGRFTISRDNAKNTVYLLMNSLKPEDTAVYYCAAYSGVGYLWFVYWGQGTQVTVSS | low polyreactivity
37 | QVQIVESGGGLFQAGGSLRISCAPSGRTLRYNTMGWYRQAPGKERELVAAISIRGGSTYYADSVKGRFTISRDNAKNTVYLQMNSLKPEDTAVSYCNARFTYRWGMGYWGQGTQVTVSS | high polyreactivity
38 | QVQLVESGGGLVQAGGSLRLSCPASGRTFSRNAMGRYRQAPGKERELVATISRRGGSTNYADSVKGRFTISRDNAKNTVYLQMNSLIPEDTAVYYCAAGYRVRDDKVYGIVGAMDYWGQGTQVTVSS | high polyreactivity
39 | QVQLVESGGGLVQAGGSLRLSCAASGSTFTPNVMGWNRQAPGKEREYVAAINSSGGSTFYADSVKGRFTISRDTAKYTVYLQMNSLKPEDTAFYYCAASWHTPTFYDEYYYWGQGTQVTVSS | low polyreactivity
40 | QVQLVESGGGLVQAGGSLRLSCAASGRTFLRYAMGWYRQAPGKERELVAAISGSGGSTYYADSVKGRFTISRDNAKNTVYLQMNSLKPEDTAVYYCATRFWVSFKAREYWGQGTQVTVSS | high polyreactivity
41 | QVQLVESGGGLVQAGGSLRLICAASGSIFYEYAMGWYRQAPGKEREFVASISWSGGITSYADSVKGRFTISRDNAKNTVYLQMNSLKPEDTAVYYCAADFSWYLYDYDYWGQGTQVTVSS | low polyreactivity
42 | QVQLVESGGGLVQAGGSLRLSCAASGSIFRNYAMGWYRQAPGKERELVAVITYSGGNTYYADSVKGRFTISRDIAKNTVYLQMNSLKPEDSAVYYCAADYLVVAYGYRYLRHYYWGQGTQVTVSS | high polyreactivity
43 | QVQLVESGGGLVQAGGSLRLSCAASGSTFGGYAMGWYRQAPGKERELVAGISSGTSTYYADSVKGRFTISRDNAKNTVYLQMNSLKPEDTAVYYCAKYSYYRKLGYWGQGTQVTVSS | high polyreactivity
